In IntAct's records for PubMed 18342605:

B1: Serine/threonine-protein phosphatase PP1-2 (Saccharomyces cerevisiae), P32598 (parent)
chain: MDSQPVDVDNIIDRLLEVRGSKPGQQVDLEENEIRYLCSKARSIFIKQPILLELEAPIKICGDIHGQYYDLLRLFEYGGFPPESNYLFLGDYVDRGKQSLETICLLLAYKIKYPENFFILRGNHECASINRIYGFYDECKRRYNIKLWKTFTDCFNCLPIAAIIDEKIFCMHGGLSPDLNSMEQIRRVMRPTDIPDVGLLCDLLWSDPDKDIVGWSENDRGVSFTFGPDVVNRFLQKQDMELICRAHQVVEDGYEFFSKRQLVTLFSAPNYCGEFDNAGAMMSVDESLLCSFQILKPAQKSLPRQAGGRKKK
partner: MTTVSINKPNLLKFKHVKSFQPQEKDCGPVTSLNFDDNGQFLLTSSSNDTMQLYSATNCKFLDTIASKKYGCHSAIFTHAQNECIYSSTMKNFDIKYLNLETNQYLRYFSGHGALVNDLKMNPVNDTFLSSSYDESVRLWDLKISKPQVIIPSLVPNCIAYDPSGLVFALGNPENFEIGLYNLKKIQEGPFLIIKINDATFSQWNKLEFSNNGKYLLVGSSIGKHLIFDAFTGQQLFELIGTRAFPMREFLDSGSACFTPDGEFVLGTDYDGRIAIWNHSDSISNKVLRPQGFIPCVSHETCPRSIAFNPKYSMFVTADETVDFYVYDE
B2: Serine/threonine-protein phosphatase PP1-2 (Saccharomyces cerevisiae), P32598 (parent)
chain: B1 chain
partner: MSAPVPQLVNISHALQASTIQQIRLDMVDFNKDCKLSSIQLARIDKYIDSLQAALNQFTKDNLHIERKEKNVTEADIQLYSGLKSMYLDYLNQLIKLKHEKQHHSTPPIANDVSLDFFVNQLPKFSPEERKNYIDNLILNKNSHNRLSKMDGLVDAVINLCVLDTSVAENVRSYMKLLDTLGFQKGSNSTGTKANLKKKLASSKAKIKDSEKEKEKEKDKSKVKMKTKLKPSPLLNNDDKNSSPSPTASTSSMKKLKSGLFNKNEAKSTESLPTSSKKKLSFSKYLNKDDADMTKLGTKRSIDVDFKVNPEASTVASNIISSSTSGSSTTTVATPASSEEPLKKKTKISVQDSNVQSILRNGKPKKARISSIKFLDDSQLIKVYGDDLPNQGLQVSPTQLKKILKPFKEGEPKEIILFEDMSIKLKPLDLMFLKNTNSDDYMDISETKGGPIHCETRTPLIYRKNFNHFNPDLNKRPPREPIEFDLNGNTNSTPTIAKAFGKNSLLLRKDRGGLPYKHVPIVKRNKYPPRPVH
B3: RNA end formation protein 2 (Saccharomyces cerevisiae), P42073 (parent)
chain: B2 partner
B4: Serine/threonine-protein phosphatase PP1-2 (Saccharomyces cerevisiae), P32598 (parent)
chain: B1 chain

Variants of: B1
Settings: with swd2_yeast SWD2, P36104

Variant	effect of a mutation on the interaction
MDSQPVDVDNIIDRLLEVRGSKPGQQVDLEENEIRYLCSKARSIFIKQPILLELEAPIKICGDIHGQYYDLLRLFEYGGFPPESNYLFLGDYVDRGKQSLETICLLLAYKIKYPENFFILRGNHECASINRIYGFYDECKRRYNIKLWKTFTDCFNCLPIAAIIDEKIFCMHGGLSPDLNSMEQIRRVMRPTDIPDVGLLCDLLWSDPDKDIVGWSENDRGVSFTFGPDVVNRFLQKQDMELICRAHQVVEDGYEAFSKRQLVTLFSAPNYCGEFDNAGAMMSVDESLLCSAQILKPAQKSLPRQAGGRKKK [F256A;F292A]	disrupting interaction strength
MDSQPVDVDNIIDRLLEVRGSKPGQQVDLEENEIRYLCSKARSIFIKQPILLELEAPIKICGDIHGQYYDLLRLFEYGGFPPESNYLFLGDYVDRGKQSLETICLLLAYKIKYPENFFILRGNHECASINRIYGFYDECKRRYNIKLWKTFTDCFNCLPIAAIIDEKIFCMHGGLSPDLNSMEQIRRVMRPTDIPDVGLLCDLLWSDPDKDIVGWSENDRGVSFTFGPDVVNRFLQKQDMELICRAHQVVEDGYEAFSKRQLVTLFSAPNYCGEFDNAGAMMSVDESLLCSFQILKPAQKSLPRQAGGRKKK [F256A]	disrupting interaction strength
MDSQPVDVDNIIDRLLEVRGSKPGQQVDLEENEIRYLCSKARSIFIKQPILLELEAPIKICGDIHGQYYDLLRLFEYGGFPPESNYLFLGDYVDRGKQSLETICLLLAYKIKYPENFFILRGNHECASINRIYGFYDECKRRYNIKLWKTFTDCFNCLPIAAIIDEKIFCMHGGLSPDLNSMEQIRRVMRPTDIPDVGLLCDLLWSDPDKDIVGWSENDRGVSFTFGPDVVNRFLQKQDMELICRAHQVVEDGYEFFSKRQLVTLFSAPNYCGEFDNAGAMMSVDESLLCSAQILKPAQKSLPRQAGGRKKK [F292A]	decreasing interaction strength

Variants of: B2
Settings: with ref2_yeast REF2, P42073

Variant	effect of a mutation on the interaction
MDSQPVDVDNIIDRLLEVRGSKPGQQVDLEENEIRYLCSKARSIFIKQPILLELEAPIKICGDIHGQYYDLLRLFEYGGFPPESNYLFLGDYVDRGKQSLETICLLLAYKIKYPENFFILRGNHECASINRIYGFYDECKRRYNIKLWKTFTDCFNCLPIAAIIDEKIFCMHGGLSPDLNSMEQIRRVMRPTDIPDVGLLCDLLWSDPDKDIVGWSENDRGVSFTFGPDVVNRFLQKQDMELICRAHQVVEDGYEFFSKRQLVTLFSAPNYCGEFDNAGAMMSVDESLLCSAQILKPAQKSLPRQAGGRKKK [F292A]	decreasing interaction strength
MDSQPVDVDNIIDRLLEVRGSKPGQQVDLEENEIRYLCSKARSIFIKQPILLELEAPIKICGDIHGQYYDLLRLFEYGGFPPESNYLFLGDYVDRGKQSLETICLLLAYKIKYPENFFILRGNHECASINRIYGFYDECKRRYNIKLWKTFTDCFNCLPIAAIIDEKIFCMHGGLSPDLNSMEQIRRVMRPTDIPDVGLLCDLLWSDPDKDIVGWSENDRGVSFTFGPDVVNRFLQKQDMELICRAHQVVEDGYEAFSKRQLVTLFSAPNYCGEFDNAGAMMSVDESLLCSAQILKPAQKSLPRQAGGRKKK [F256A;F292A]	disrupting interaction strength
MDSQPVDVDNIIDRLLEVRGSKPGQQVDLEENEIRYLCSKARSIFIKQPILLELEAPIKICGDIHGQYYDLLRLFEYGGFPPESNYLFLGDYVDRGKQSLETICLLLAYKIKYPENFFILRGNHECASINRIYGFYDECKRRYNIKLWKTFTDCFNCLPIAAIIDEKIFCMHGGLSPDLNSMEQIRRVMRPTDIPDVGLLCDLLWSDPDKDIVGWSENDRGVSFTFGPDVVNRFLQKQDMELICRAHQVVEDGYEAFSKRQLVTLFSAPNYCGEFDNAGAMMSVDESLLCSFQILKPAQKSLPRQAGGRKKK [F256A]	disrupting interaction strength

Variants of: B3
Settings: with pp12_yeast GLC7, P32598

Variant	effect of a mutation on the interaction
MSAPVPQLVNISHALQASTIQQIRLDMVDFNKDCKLSSIQLARIDKYIDSLQAALNQFTKDNLHIERKEKNVTEADIQLYSGLKSMYLDYLNQLIKLKHEKQHHSTPPIANDVSLDFFVNQLPKFSPEERKNYIDNLILNKNSHNRLSKMDGLVDAVINLCVLDTSVAENVRSYMKLLDTLGFQKGSNSTGTKANLKKKLASSKAKIKDSEKEKEKEKDKSKVKMKTKLKPSPLLNNDDKNSSPSPTASTSSMKKLKSGLFNKNEAKSTESLPTSSKKKLSFSKYLNKDDADMTKLGTKRSIDVDFKVNPEASTVASNIISSSTSGSSTTTVATPASSEEPLKKKTKISVQDSNVQSILRNGKPKKARISSIKALDDSQLIKVYGDDLPNQGLQVSPTQLKKILKPFKEGEPKEIILFEDMSIKLKPLDLMFLKNTNSDDYMDISETKGGPIHCETRTPLIYRKNFNHFNPDLNKRPPREPIEFDLNGNTNSTPTIAKAFGKNSLLLRKDRGGLPYKHVPIVKRNKYPPRPVH [F374A]	disrupting interaction strength

Variants of: B4
Settings: with sen1_yeast SEN1, Q00416
Chain of sen1_yeast SEN1, Q00416 (Q00416 whole entry): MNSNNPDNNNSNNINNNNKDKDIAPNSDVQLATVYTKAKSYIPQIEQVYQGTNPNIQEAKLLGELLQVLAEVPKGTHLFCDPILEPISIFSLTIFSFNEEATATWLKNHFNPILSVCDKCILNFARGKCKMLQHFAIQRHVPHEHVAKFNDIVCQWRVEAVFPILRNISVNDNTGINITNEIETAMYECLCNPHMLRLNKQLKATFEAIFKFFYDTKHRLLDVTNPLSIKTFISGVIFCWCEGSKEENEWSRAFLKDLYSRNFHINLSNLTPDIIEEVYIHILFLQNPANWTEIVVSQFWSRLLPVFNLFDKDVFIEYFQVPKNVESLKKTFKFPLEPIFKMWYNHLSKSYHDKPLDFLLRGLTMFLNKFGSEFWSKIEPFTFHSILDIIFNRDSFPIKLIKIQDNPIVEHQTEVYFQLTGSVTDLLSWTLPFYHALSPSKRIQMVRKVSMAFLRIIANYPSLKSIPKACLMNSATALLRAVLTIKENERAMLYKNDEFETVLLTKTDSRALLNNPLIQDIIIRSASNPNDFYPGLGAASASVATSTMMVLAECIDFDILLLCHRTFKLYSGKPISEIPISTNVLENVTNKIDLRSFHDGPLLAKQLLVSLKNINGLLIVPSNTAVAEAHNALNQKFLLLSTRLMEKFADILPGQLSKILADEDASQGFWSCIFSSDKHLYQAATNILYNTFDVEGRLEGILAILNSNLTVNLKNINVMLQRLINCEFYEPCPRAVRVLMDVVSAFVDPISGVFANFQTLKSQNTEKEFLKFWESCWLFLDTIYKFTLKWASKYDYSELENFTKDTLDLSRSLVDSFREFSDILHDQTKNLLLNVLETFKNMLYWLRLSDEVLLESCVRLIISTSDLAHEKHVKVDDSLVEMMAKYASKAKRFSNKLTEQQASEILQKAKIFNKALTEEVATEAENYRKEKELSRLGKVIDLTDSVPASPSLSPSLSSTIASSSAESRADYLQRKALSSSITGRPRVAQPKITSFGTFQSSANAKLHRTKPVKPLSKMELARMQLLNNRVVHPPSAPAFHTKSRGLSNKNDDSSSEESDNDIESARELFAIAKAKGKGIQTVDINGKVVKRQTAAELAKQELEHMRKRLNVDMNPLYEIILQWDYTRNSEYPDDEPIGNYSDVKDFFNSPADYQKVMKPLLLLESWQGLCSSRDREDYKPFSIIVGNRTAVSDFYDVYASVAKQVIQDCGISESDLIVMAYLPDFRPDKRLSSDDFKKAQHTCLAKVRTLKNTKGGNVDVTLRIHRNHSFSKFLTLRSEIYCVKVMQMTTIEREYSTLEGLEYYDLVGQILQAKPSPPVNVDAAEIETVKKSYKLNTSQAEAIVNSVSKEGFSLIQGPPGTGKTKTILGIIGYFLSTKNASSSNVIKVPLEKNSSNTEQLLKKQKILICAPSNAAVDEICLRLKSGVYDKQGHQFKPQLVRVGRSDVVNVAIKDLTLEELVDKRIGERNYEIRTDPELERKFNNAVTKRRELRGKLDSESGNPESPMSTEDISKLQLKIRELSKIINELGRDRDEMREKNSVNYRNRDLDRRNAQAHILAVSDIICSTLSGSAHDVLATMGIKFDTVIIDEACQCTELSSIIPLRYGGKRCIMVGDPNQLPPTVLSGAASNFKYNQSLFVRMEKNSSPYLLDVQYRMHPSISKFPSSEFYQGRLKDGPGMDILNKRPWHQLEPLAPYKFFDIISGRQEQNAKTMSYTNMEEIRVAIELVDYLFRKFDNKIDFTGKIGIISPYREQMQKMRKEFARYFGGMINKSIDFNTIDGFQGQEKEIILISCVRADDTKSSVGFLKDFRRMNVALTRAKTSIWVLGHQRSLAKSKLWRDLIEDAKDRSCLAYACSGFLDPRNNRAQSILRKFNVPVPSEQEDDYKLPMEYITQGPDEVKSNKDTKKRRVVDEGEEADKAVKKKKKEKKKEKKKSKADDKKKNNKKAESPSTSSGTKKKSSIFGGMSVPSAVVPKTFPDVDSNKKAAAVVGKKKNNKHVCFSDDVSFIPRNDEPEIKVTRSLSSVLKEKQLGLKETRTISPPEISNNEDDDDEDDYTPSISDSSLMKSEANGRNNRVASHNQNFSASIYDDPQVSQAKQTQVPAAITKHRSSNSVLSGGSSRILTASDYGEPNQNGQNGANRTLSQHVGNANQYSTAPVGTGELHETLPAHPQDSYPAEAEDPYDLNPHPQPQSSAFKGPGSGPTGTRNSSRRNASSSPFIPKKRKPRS

Variant	effect of a mutation on the interaction
MDSQPVDVDNIIDRLLEVRGSKPGQQVDLEENEIRYLCSKARSIFIKQPILLELEAPIKICGDIHGQYYDLLRLFEYGGFPPESNYLFLGDYVDRGKQSLETICLLLAYKIKYPENFFILRGNHECASINRIYGFYDECKRRYNIKLWKTFTDCFNCLPIAAIIDEKIFCMHGGLSPDLNSMEQIRRVMRPTDIPDVGLLCDLLWSDPDKDIVGWSENDRGVSFTFGPDVVNRFLQKQDMELICRAHQVVEDGYEFFSKRQLVTLFSAPNYCGEFDNAGAMMSVDESLLCSAQILKPAQKSLPRQAGGRKKK [F292A]	decreasing interaction strength
MDSQPVDVDNIIDRLLEVRGSKPGQQVDLEENEIRYLCSKARSIFIKQPILLELEAPIKICGDIHGQYYDLLRLFEYGGFPPESNYLFLGDYVDRGKQSLETICLLLAYKIKYPENFFILRGNHECASINRIYGFYDECKRRYNIKLWKTFTDCFNCLPIAAIIDEKIFCMHGGLSPDLNSMEQIRRVMRPTDIPDVGLLCDLLWSDPDKDIVGWSENDRGVSFTFGPDVVNRFLQKQDMELICRAHQVVEDGYEAFSKRQLVTLFSAPNYCGEFDNAGAMMSVDESLLCSAQILKPAQKSLPRQAGGRKKK [F256A;F292A]	disrupting interaction strength
MDSQPVDVDNIIDRLLEVRGSKPGQQVDLEENEIRYLCSKARSIFIKQPILLELEAPIKICGDIHGQYYDLLRLFEYGGFPPESNYLFLGDYVDRGKQSLETICLLLAYKIKYPENFFILRGNHECASINRIYGFYDECKRRYNIKLWKTFTDCFNCLPIAAIIDEKIFCMHGGLSPDLNSMEQIRRVMRPTDIPDVGLLCDLLWSDPDKDIVGWSENDRGVSFTFGPDVVNRFLQKQDMELICRAHQVVEDGYEAFSKRQLVTLFSAPNYCGEFDNAGAMMSVDESLLCSFQILKPAQKSLPRQAGGRKKK [F256A]	disrupting interaction strength
